Test results from paper PMC7782096, “BAP1 suppresses prostate cancer progression by deubiquitinating and stabilizing PTEN” (Molecular Oncology, 2020).

Molecular target: T1, His-tagged BAP1 protein (UniProt Q92560 1-729)
T1 construct: BAP1, full length, inserted into pET-28a; also called His-BAP1; source: E. coli expressing system, purified
T1 sequence (looked up): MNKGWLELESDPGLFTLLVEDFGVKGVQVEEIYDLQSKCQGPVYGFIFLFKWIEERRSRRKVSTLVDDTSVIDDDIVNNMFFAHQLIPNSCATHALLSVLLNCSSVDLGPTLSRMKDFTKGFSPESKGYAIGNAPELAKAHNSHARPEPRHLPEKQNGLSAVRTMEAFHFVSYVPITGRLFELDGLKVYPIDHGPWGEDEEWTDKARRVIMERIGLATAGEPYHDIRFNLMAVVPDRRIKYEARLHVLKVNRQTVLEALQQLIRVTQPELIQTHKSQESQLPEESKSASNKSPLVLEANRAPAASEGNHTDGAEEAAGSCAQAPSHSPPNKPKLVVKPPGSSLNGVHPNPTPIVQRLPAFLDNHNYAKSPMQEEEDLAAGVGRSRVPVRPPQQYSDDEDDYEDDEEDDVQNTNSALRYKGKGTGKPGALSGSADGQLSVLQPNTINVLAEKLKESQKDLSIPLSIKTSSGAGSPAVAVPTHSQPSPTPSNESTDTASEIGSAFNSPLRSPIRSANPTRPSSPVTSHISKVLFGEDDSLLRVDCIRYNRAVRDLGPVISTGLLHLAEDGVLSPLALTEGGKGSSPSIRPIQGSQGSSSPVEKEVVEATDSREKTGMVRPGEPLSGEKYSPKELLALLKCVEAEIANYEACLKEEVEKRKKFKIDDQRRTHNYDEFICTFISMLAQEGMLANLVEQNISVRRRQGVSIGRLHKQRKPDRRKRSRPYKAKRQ
Experiment: pull-down; purified GST-PTEN on GST beads incubated with recombinant His-BAP1 purified from E. coli, 4 °C; western blotting
Details: both partners purified

binding result: binds
B1: GST-tagged PTEN recombinant protein (natural protein)
chain: not shown
notes: PTEN; also called GST-PTEN; source: bacterially expressed (E. coli), purified
